Laboratory results reported in the DeepSol protein solubility set.

Assay: soluble on expression in E. coli; label from the status in PepcDB or PDB records

Sequence | soluble on expression in E. coli
DEIVMDANAVLGPVDPQLGNFPAASILKVVKDKPIGEIDDQTLIMADLAGKAIQQVQRFVRTLLKDNIPKQKVNPENIESIIEALTTGRVTHDYPITVEEATEMGLPITVGLPRSIYELMDLYPQSQGGRPSVQYIPMPYDDRRPIL | not soluble
DERLLAREVQKMRFRRSTYSSPQPATQQPANGSERKNDSDNLVGAENHSAETPTDNRSAEVEQPYYPAKYEEELLRLIIRYGERKLLIYRHEEGAEKQTPSEVALAYYIKSDLNADGVDIGTDVFRQILDEAAEQSFDSGFVAAKYFRDHPNAQISHIAVELLTNRYALSRIHYGKGDESNAEEDLQMRVERELLTIKNVFIQVQIRALQKEIAQAQKAGDIELQLEIMNELRSMNEMKSELAHRLGDRTVLP | not soluble
DFEVGDKIRILATLEDGWLEGSLKGRTGIFPYRFVKLCPDTRVEETMALPQEGSLARIPETSLDCLENTLGVEEQRHETSDHEAEEPDCIISEAPTSPLGHLTSEYDTDRNSYQDEDTAGGPPRSPGVEWEMPLATDSPTSDPTEVVNGISSQPQVPFHPNLQKSQYYSTVGGSHPHSEQYPDLLPLEARTRDYASLPPKRMYSQLKTLQKPVLPLYRGSSVSASRVVKPRQSSPQLHNLASYTKKHHTSSVYSISERLEMKPGPQAQGLVMEAATHSQGDGSTDLDSKLTQQLIEFEKSLAGPGTEPDKILRHFSIMDFNSEKDIVRGSSKLITEQELPERRKALRPPPPRPCTPVSTSPHLLVDQNLKPAPPLVVRPSRPAPLPPSAQQRTNAVSPKLLSRHRPTCETLEKEGPGHMGRSLDQTSPCPLVLVRIEEMERDLDMYSRAQEELNLMLEEKQDESSRAETLEDLKFCESNIESLNMELQQLREMTLLSSQSSSLVAPSGSVSAENPEQRMLEKRAKVIEELLQTERDYIRDLEMCIERIMVPMQQAQVPNIDFEGLFGNMQMVIKVSKQLLAALEISDAVGPVFLGHRDELEGTYKIYCQNHDEAIALLEIYEKDEKIQKHLQDSLADLKSLYNEWGCTNYINLGSFLIKPVQRVMRYPLLLMELLNSTPESHPDKVPLTNAVLAVKEINVNINEYKRRKDLVLKYRKGDEDSLMEKISKLNIHSIIKKSNRVSSHLKHLTGFAPQIKDEVFEETEKNFRMQERLIKSFIRDLSLYLQHIRESACVKVVAAVSMWDVCMERGHRDLEQFERVHRYISDQLFTNFNGQKS | soluble
DKSNKLQNLVAEQLVGCGFNEILNNSLTRAAYYDGLESYPSKNLVMLLNPLSADLNCMRQTLLFGGLESIAHNANRKNADLKFFEFGNCYHFDAEKKNPEKVLAPYSEDYHLGLWVTGKMVSNSWAHADENTSVYELKAYVENIFKRLGLDLHSLVVGNLSDDIYSTALTVNTKGGKRLATFGVVTKKMLKAFDVDNEVYYADLNWKELM | soluble
DKTVKRAVPFKIIKMIKELDLSFEPQLELARDIFLFSFYTRGMSFIDMAHLKKSNLQNGILTYSRKKTGQRLTILWEELMQEIVDKYKDDTSEYLLPILRYCDINDRKQYKLRAKQIGRGLNKIGLRLELKAPLTFYVARHSWASIAQDRKVSTDIIREGLGHDNEKTTHIYLASISTSQIDRANQIILRGL | soluble
DMKPNSTKIGVAEATDAALIQALQQRQVFTKTTQPTLSWEQYLELNLNSKSKRLALCNKLHLSYFNHKQLFRKLNLLQLTFDQVCQLLK | not soluble
DMPAEIVNLIGKMRFHTVYGQNLLQHSREVAMLAGLMAAELKLDAKQAKRAGLLHDIGLVLPETEMPHALAGMEFLKKFNMSPVVLNAIGAHHGEVEKASPIADLVDAANIVSLSRPGARGAVTAEGNVKRLESLEEIARTFPGVIKTYALQAGREIRVIVEGDNVSD | not soluble
DMPRPTGLAADIRWTAYGVPHIRAKDERGLGYGIGYAYARDNACLLAEEIVTARGERARYFGSEGKSSAELDNLPSDIFYAWLNQPEALQAFWQAQTPAVRQLLEGYAAGFNRFLREADGKTTSCLGQPWLRAIATDDLLRLTRRLLVEGGVGQFADALVAAAPPGAEKV | soluble
DNKELQKLTEDISETYFKKPFRHQALFNDRLKTTGGRYLLTSHNIELNRKYLIEHGREELIGIIKHELCHYHLHLEGKGYKHRDRDFRMLLQQVNAPRFCTPLKKKAENKKTYMYICTTCGQQYIKKRAMNPDRYRCGKCRGKIKRI | not soluble
DPSKGRWVEGITSEGYHYYYDLISGASQWEKPEGFQGDLKKTAVKTVWVEGLSEDGFTYYYNTETGESRWEKPDD | soluble
DQQLVDQLSQLKLNVKMLDNRAGENGVDCAALGADWASCNRVLFTLSNDGQAIDGKDWVIYFHSPRQTLRVDNDQFKIAHLTGDLYKLEPTAKFSGFPAGKAVEIPVVAEYWQLFRNDFLPRWYATSGDAKPKMLANTDTENLDQFVAPFTGDQWKRTKDDKNILMTPASRFVSNADLQTLPAGALRGKIVPTPMQVKVHAQDADLRKGVALDLSTLVKPAADVVSQRFALLGVPVQTNGYPIKTDIQPGKFKGAMAVSGAYELKIGKKEAQVIGFDQAGVFYGLQSILSLVPSDGSGKIATLDASDAPRFPYRGIFLDVARNFHKKDAVLRLLDQMAAYKLNKFHFHLSDDEGWRIEIPGLPELTEVGGQRCHDLSETTCLLPQYGQGPDVYGGFFSRQDYIDIIKYAQARQIEVIPEIDMPAHARAAVVSMEARYKKLHAAGKEQEANEFRLVDQTDTSNTTSVQFFNRQSYLNPCLDSSQRFVDKVIGEIAQMHKEAGQPIKTWHFGGDDAKNIRLGAGYTDKAKPEPGKGIIDQSNEDKPWAKSQVCQTMIKEGKVADMEHLPSYFGQEVSKLVKAHGIDRMQAWQDGLKDAESSKAFATSRVGVNFWDTLYWGGFDSVNDWANKGYEVVVSNPDYVYMDFPYEVNPDERGYYWGTRFSDERKVFSFAPDNMPQNAETSVDRDGNHFNAKSDKPWPGAYGLSAQLWSETQRTDPQMEYMIFPRALSVAERSWHRAGWEQDYRAGREYKGGETHFVDTQALEKDWLRFANILGQRELAKLDKGGVAYRLPVPGARVAGGKLEANIALPGLGIEYSTDGGKQWQRYDAKAKPAVSGEVQVRSVSPDGKRYSRAEKV | soluble
DYKDIVLTQSHKFMSTSVGDRVSITCKASQDVGTAVAWYQQKPGQSPKLLIYWASTRHTGVPDRFTGSGSGTDFTLTISNVQSEDLADYFCQQYSSYPLTFGAGTKLELKRGGGGSGGGGSGGGGSGGGGSQVQLQESGGELVRPGASVKLSCKASGYTFTSYWINWVKQRPGQGLEWIGNIYPSDSYTNYNQKFKDKATLTVDKSSSTAYMQLSSLTSEDSAVYFCARWGYWGQGTLVTVSAASGAHHHHH | soluble
DYNGQAKCMLEKVGNWNFDIFLFDRLTNGNSLVSLTFHLFSLHGLIEYFHLDMMKLRRFLVMIQEDYHSQNPYHNAVHAADVTQAMHCYLKEPKLANSVTPWDILLSLIAAATHDLDHPGVNQPFLIKTNHYLATLYKNTSVLENHHWRSAVGLLRESGLFSHLPLESRQQMETQIGALILATDISRQNEYLSLFRSHLDRGDLCLEDTRHRHLVLQMALKCADICNPCRTWELSKQWSEKVTEEFFHQGDIEKKYHLGVSPLCDRHTESIANIQIGFMTYLVEPLFTEWARFSNTRLSQTMLGHVGLNKASWKGLQR | soluble
DYVGGCLDFRPEEGIFRIARDMFTEPELFDLEMELIFEKNWIYACHESELARPHDFVTLRAGRQPLIVTRDGNGQLHALVNACQHRGATLVRVGKGNQSTFTCPFHAWCYKNDGRLVKVKAPGEYPEGFDKATRGLKKARIQSYRGFVFVSLDVAGEDDLVDFLGDARVFLDMLVAQSPSGELEVLPGTSTYTYEGNWKLQNENGLDGYHVSTVHYNYVATVQHRQQVEAERGGVAATLDYSKLGAGDAATDDGWFSFANGHSVLFSEMPNPAVRPGYASVMPRLVAEYGQARAEWMMHRLRNLNLYPSLFVIDQISSQLRIVRPLAWNRTEIVSQCIGVKGESDADRENRIRQFEDFFNVSGMGTPDDLVEFREAQRGFQARLERWSDISRGHGKWLEGATPNSQALGIAPLLTGTEITHEGLYVNQHAHWRRFLLDGLERLALRA | not soluble
EAAYSHTPLIMVSADRPERLHGTGANQTIEQRGIFNVVDTDHVVDITDLNSISFARNVIHINVALDVPLVDVLPEVGDPVERVREVIEVDHGEVVLNLNERILVVAGDEAWEVPGLEDVPTIAEPSAPAPYHPVHPLAAQIFAHKEIKPEHIVVVGHPTLHRAVLSLLADVPVTVLTKTDTITGNPQAVGSRVKVTGELDKRWLQICEDASTLCADRVKEVLEGH | not soluble
EDKTITTLYVGGLGDTITETDLRNHFYQFGEIRTITVVQRQQCAFIQFATRQAAEVAAEKSFNKLIVNGRRLNVKWGR | soluble
EETLLNTKLETADLKWVTFPQVDGQWEELSGLDEEQHSVRTYEVCDVQRAPGQAHWLRTGWVPRRGAVHVYATLRFTMLECLSLPRAGRSCKETFTVFYYESDADTATALTPAWMENPYIKVDTVAAEHLTRKRPGAEATGKVNVKTLRLGPLSKAGFYLAFQDQGACMALLSLHLFYKK | soluble
EFKHILVGVDDSDDAQLAFRYAINRAKSDGAKLTIVSILEQDNMNVYEAMSKDFVHGQRKDLEEHVQQYQKLARDFGVTDVNAVVDEGDPGETIVKTVIPALKPDLLVIGSVAKHGVRKYFGSQAAYMAKHAPISVLVIR | not soluble
EFSSEELIRMSNYLNELLVGVPVGQVRTRILEEMRNEKVLYDKLLARALQLSEQSLNDDGAQIFIEGQTNILEQPEFADSRRMRDLFRAFEEKNQLVGLLDRCLNAQGVQIFIGAETHLSQMEGLSIITSTYLTGKNTLGVLGVIGPTRMGYAKVIPIVDYTAKLVSRLLEG | not soluble
EGAALTEKTDIFESGRNGKPNKDGIKSYRIPALLKTDKGTLIAGADERRLHSSDWGDIGMVIRRSEDNGKTWGDRVTITNLRDNPKASDPSIGSPVNIDMVLVQDPETKRIFSIYDMFPEGKGIFGMSSQKEEAYKKIDGKTYQILYREGEKGAYTIRENGTVYTPDGKATDYRVVVDPVKPAYSDKGDLYKGNQLLGNIYFTTNKTSPFRIAKDSYLWMSYSDDDGKTWSAPQDITPMVKADWMKFLGVGPGTGIVLRNGPHKGRILIPVYTTNNVSHLNGSQSSRIIYSDDHGKTWHAGEAVNDNRQVDGQKIHSSTMNNRRAQNTESTVVQLNNGDVKLFMRGLTGDLQVATSKDGGVTWEKDIKRYPQVKDVYVQMSAIHTMHEGKEYIILSNAGGPKRENGMVHLARVEENGELTWLKHNPIQKGEFAYNSLQELGNGEYGILYEHTEKGQNAYTLSFRKFNWDFLSKDLISPTEAKVKRTREMGKGVIGLEFDSEVLV | soluble
EGGDFVVGMVTDSGDIDDKSFNQQVWEGISRFAQENNAKCKYVTASTDAEYVPSLSAFADENMGLVVACGSFLVEAVIETSARFPKQKFLVIDAVVQDRDNVVSAVFGQNEGSFLVGVAAALKAKEAGKSAVGFIVGMELGMMPLFEAGFEAGVKAVDPDIQVVVEVANTFSDPQKGQALAAKLYDSGVNVIFQVAGGTGNGVIKEARDRRLNGQDVWVIGVDRDQYMDGVYDGSKSVVLTSMVKRADVAAERISKMAYDGSFPGGQSIMFGLEDKAVGIPEENPNLSSAVMEKIRSFEEKIVSKEIVVPVRSARMMN | soluble
EHVEMLSAAGATVVAFDPLSEQLPQCDGLIIPGGFPEEHCDVLEQRADLKQQVCDVIAQGIPVHAECAGLLWLLSTLDGRPMLDVIPTHGAMGRRLTLGYRDAVVVHDSVIYRAGERVTGHEFHHTAIADSVVPGWDSAWGWRAWDGSPKVEGFVSGNVHASYLHVHPAAVPAAVRRFVEACAR | not soluble
EKKEQKEKEKKEQEIKKKFKLTGPIQVIHLAKACCDVKGGKNELSFKQGEQIEIIRITDNPEGKWLGRTARGSYGYIKTTAVEIDYDSLKLKKDLE | soluble
ELPKKRELCKFYITGFCARAENCPYMHGDFPCKLYHTTGNCINGDDCMFSHDPLTEETRELLDKMLADDAEAGAEDEKEVEELKK | soluble
